The target of the test is T1, Flag-tagged Pds5b-Ser1177,1182,1209Ala (3A) phosphorylated by Cdk1/2-cyclin A2 (human, UniProt Q9NTI5 1-1447, Ser1177,1182,1209Ala | Ser1177,1182,1209Ala | Ser1177,1182,1209Ala, phosphoserine at 1161 and 1166 (by Cdk1/2-cyclin A2)).
T1 construct: Pds5b, human; also called Pds5b-3A
T1 sequence (looked up): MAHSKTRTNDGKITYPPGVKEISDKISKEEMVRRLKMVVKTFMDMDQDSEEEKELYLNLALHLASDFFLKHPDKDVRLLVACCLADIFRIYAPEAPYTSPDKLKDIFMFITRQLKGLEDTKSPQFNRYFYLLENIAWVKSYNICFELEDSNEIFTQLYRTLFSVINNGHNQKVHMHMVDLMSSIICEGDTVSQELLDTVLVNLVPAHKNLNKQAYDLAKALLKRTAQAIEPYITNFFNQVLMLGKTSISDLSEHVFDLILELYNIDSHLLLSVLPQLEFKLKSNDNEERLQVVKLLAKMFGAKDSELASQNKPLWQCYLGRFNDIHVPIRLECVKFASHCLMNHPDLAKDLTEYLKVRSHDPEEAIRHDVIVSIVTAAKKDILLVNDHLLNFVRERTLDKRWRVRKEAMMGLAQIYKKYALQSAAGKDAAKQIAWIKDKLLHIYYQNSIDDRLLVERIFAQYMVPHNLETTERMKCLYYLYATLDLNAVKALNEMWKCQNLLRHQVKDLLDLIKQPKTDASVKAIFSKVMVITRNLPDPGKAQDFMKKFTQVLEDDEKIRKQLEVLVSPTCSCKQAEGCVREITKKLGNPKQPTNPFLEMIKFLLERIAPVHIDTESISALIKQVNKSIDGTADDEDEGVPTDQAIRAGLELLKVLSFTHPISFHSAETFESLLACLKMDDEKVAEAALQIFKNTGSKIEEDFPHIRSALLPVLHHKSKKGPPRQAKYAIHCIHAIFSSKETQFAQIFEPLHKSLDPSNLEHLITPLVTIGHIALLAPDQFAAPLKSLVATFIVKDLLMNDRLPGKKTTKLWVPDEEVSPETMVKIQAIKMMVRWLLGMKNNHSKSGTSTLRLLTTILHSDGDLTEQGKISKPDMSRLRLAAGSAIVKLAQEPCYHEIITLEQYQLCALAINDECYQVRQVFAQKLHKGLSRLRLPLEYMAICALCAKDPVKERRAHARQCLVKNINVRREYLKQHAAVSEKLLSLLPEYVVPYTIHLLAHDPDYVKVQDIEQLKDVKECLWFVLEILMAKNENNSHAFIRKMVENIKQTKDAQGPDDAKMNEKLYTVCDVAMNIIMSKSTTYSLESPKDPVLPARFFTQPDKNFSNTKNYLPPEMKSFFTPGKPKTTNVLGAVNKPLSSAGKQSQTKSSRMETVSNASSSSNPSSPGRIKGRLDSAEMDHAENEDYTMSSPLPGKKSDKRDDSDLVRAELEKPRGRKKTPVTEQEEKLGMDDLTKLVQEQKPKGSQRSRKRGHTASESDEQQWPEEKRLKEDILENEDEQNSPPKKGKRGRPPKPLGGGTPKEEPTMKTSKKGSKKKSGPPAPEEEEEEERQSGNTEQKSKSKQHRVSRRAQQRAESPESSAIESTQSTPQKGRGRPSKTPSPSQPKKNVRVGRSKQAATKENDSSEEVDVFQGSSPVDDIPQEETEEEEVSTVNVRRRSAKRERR
As to the kind of experiment: pull-down; Flag-Pds5b variants affinity-purified from Nek2a- and cyclin A2-free prometaphase cells, incubated on the beads with recombinant Nek2a and/or Cdk1/2-cyclin A2 and ATP, washed, then incubated with recombinant Wapl (2 µl) and sororin (0.3 µg) in 15 µl cleavage buffer without ATP, 20 min at 37 °C; immunoblotting. The settings on record: both partners purified. Background: In western blotting, separated proteins are transferred to a membrane and probed.

B1: recombinant human Wapl (natural protein, UniProt Q7Z5K2 1-1190, looked up)
chain: MTSRFGKTYSRKGGNGSSKFDEVFSNKRTTLSTKWGETTFMAKLGQKRPNFKPDIQEIPKKPKVEEESTGDPFGFDSDDESLPVSSKNLAQVKCSSYSESSEAAQLEEVTSVLEANSKISHVVVEDTVVSDKCFPLEDTLLGKEKSTNRIVEDDASISSCNKLITSDKVENFHEEHEKNSHHIHKNADDSTKKPNAETTVASEIKETNDTWNSQFGKRPESPSEISPIKGSVRTGLFEWDNDFEDIRSEDCILSLDSDPLLEMKDDDFKNRLENLNEAIEEDIVQSVLRPTNCRTYCRANKTKSSQGASNFDKLMDGTSQALAKANSESSKDGLNQAKKGGVSCGTSFRGTVGRTRDYTVLHPSCLSVCNVTIQDTMERSMDEFTASTPADLGEAGRLRKKADIATSKTTTRFRPSNTKSKKDVKLEFFGFEDHETGGDEGGSGSSNYKIKYFGFDDLSESEDDEDDDCQVERKTSKKRTKTAPSPSLQPPPESNDNSQDSQSGTNNAENLDFTEDLPGVPESVKKPINKQGDKSKENTRKIFSGPKRSPTKAVYNARHWNHPDSEELPGPPVVKPQSVTVRLSSKEPNQKDDGVFKAPAPPSKVIKTVTIPTQPYQDIVTALKCRREDKELYTVVQHVKHFNDVVEFGENQEFTDDIEYLLSGLKSTQPLNTRCLSVISLATKCAMPSFRMHLRAHGMVAMVFKTLDDSQHHQNLSLCTAALMYILSRDRLNMDLDRASLDLMIRLLELEQDASSAKLLNEKDMNKIKEKIRRLCETVHNKHLDLENITTGHLAMETLLSLTSKRAGDWFKEELRLLGGLDHIVDKVKECVDHLSRDEDEEKLVASLWGAERCLRVLESVTVHNPENQSYLIAYKDSQLIVSSAKALQHCEELIQQYNRAEDSICLADSKPLPHQNVTNHVGKAVEDCMRAIIGVLLNLTNDNEWGSTKTGEQDGLIGTALNCVLQVPKYLPQEQRFDIRVLGLGLLINLVEYSARNRHCLVNMETSCSFDSSICSGEGDDSLRIGGQVHAVQALVQLFLERERAAQLAESKTDELIKDAPTTQHDKSGEWQETSGEIQWVSTEKTDGTEEKHKKEEEDEELDLNKALQHAGKHMEDCIVASYTALLLGCLCQESPINVTTVREYLPEGDFSIMTEMLKKFLSFMNLTCAVGTTGQKSISRVIEYLEHC
notes: Wapl, human; insert by PCR on human cDNA; Isolated from mitotically arrested cells; also called GFP-SUMOstar-Wapl; source: Hek293T, transiently transfected, taxol-arrested; not shown: GFP, N-terminal, cleaved; SUMOstar, N-terminal, cleaved
Regarding B1, the binding result is listed as “binds”.
